The values below come from patent publication US20090036382A1, “TGF-Beta Modulators and Use Thereof” (Universita' Degli Studi Di Padova, priority 2006, published 2009).

In test [1] the target is T1, TGFBRII (type II TGF-β receptor) (Homo sapiens, UniProt P37173).
T1 construct: expressed in transfected cells; host or cells: HEK293T
Put plainly: 125I TGF-β1 / TGFBRII cross-linking (DSS) and anti-HA immunoprecipitation in transfected HEK293T cells. Format: binding. Conditions: HEK293T transfected with TGFBRII-HA and Flag-EMI-domain-GPI; iodinated TGF-β1; FIG. 2A. How it is done:
Experiments were performed according to standard methods (Massague, 1987). Briefly, a solution of iodinated TGF-β1 (Amersham) was applied to HEK293T cells grown in 24 well plates and transfected with a plasmid carrying the sequence of TGFBRII (type II TGF-β receptor) fused to the HA epitope. After appropriate incubation and washing, the cell layer was exposed to a solution of DSS (disuccinimidyl suberate), a compound that favors formation of covalent cross-links between interacting molecules. The cell layer was extracted with immunoprecipitation buffer (RIPA-buffer) and subjected to the immunoprecipitation procedure with anti-HA antibody. The immunoprecipitate was solubilized with FSB (final sample buffer), separated by SDS-PAGE and radioactive complexes were detected by autoradiography. Molar excess of unlabeled TGF-β was used in parallel experiments. In other experiments, cells were simultaneously transfected with TGFBRII and with expression vectors driving expression of the emilin-1 EMI domain bound to GPI (glycosylphosphatidylinositol), a moiety which anchors the EMI domain to the cell membrane, that was tagged with the Flag epitope (Flag-EMI-domain-GPI).
Transfected cells, usually HEK293T, were incubated in Optimem (Invitrogen) for 24 hours prior to collection. […]

The test system of another test is pro TGF-β1. Put plainly: CAGA12-lux luciferase reporter in HEK293T cells co-transfected with pro TGF-β1 vector. It counts as cell-based, human. Conditions: CAGA12-lux, co-transfection with pro TGF-β1 vector, FIG. 2B, 2C. The text has this:
• The construct for emilin 1 expression was engineered in pCS2 vector (Rupp R. A. et al., 1994, Genes Dev 8, 1311-1323) (for a physical map of the vector, see the site faculty.washington.edu/rtmoon/pcs2+.html) as described (Zanetti M. et al., 2004, Mol Cell Biol 24, 638-650); the vector used for proTGF-β expression in MEF and HEK293T cells is pCDNA3.1 (Invitrogen). Vectors containing the coding sequence for human pro TGF-β are described in Young and Murphy-Ullrich, 2004 (Young and Murphy-Ullrich, 2004, J Biol Chem 279, 38032-38039). The human pro TGF-β cDNA sequence is reported in the data bank (NP_000660; protein 000651). • The vector for Furin/SPC 1 expression is pCDNA3.1 (Invitrogen) • p15 and CAGA 12 promoter fragments are described in Jonk L. J. et al., 1998, J Biol Chem 273, 21145-21152 […]. • Constructs containing Flag sequences are described in Young G. D and Murphy-Ullrich J E, 2004, J Biol Chem 279, 38032-38039. • Constructs containing the Flag epitope (e.g. Flag-EMI-domain-GPI) were prepared as described in Chubet R G et al. Biotechniques 1996; 20(1):136-141 and detected by anti-Flag antibody (Kodak Inc.). • Constructs containing the GPI anchor were prepared as described in the Manual “Current Protocols in Cell Biology” Howard R. Petty Wayne State University, Detroit, Mich.; Juan S. Bonifacino, Mary Dasso, Joe B. Harford, Jennifer Lippincott-Schwartz, and Kenneth M. Yamada (eds.), Copyright C 2003 John Wiley & Sons, Inc. (GPI-anchor). In the construct Flag-EMI domain-GPI, the Flag sequence was inserted at the N-terminus after the signal peptide, while the GPI-anchor sequence was placed at the COOH-terminal end. • The construct emilin 1-KDEL was obtained by inserting the KDEL coding sequence described by Munro S., and Pelham, H. R., 1987, Cell 48, 899-907 upstream the emilin 1 STOP codon. • The construct containing the type II TGF-β receptor with HA epitope was described in Wrana J. L. et al., 1994, Nature 370, 341-347. • supplier of the drugs used: SP600125 (Calbiochem), SB431542 (Tocris). • Purified recombinant LAP and TGF-β1 proteins were purchased from (R&D Systems)
To verify how emilin or the EMI domain can contrast TGF-β1 activity independently from receptor binding, HEK293T cells were transfected with a construct coding luciferase placed under control of a TGF-β activated promoter: CAGA12-lux (Jonk et al., 1998) alone or in combination with a emilin1 expression vector (500 ng) as shown in FIG. 2B. After transfection, cells were treated (black bar) or not treated (white bar) with 5 ng/ml recombinant TGF-1 (lanes 1 and 2). Column bars from 3 to 6 report luciferase expression values in experiments with cells co-transfected with the expression vector for emilin1 (or EMI-domain or emilin1ΔEMI) alone (white bars) or in combination with the vector encoding pro TGF-β1 (black bars). Values show the mean±st. dev.
As further validation of the above observations, HEK293T cells were cotransfected with expression plasmids carrying the cDNAs shown in the summary scheme above the figure, along with CAGA12-lux and CMV-lacZ constructs, and luciferase expression levels were measured.

Another test has as its system TGF-β3. Put plainly: Experiments in Xenopus on interaction of the EMI domain with TGF-β3.

T1 sequence (P37173 23-567): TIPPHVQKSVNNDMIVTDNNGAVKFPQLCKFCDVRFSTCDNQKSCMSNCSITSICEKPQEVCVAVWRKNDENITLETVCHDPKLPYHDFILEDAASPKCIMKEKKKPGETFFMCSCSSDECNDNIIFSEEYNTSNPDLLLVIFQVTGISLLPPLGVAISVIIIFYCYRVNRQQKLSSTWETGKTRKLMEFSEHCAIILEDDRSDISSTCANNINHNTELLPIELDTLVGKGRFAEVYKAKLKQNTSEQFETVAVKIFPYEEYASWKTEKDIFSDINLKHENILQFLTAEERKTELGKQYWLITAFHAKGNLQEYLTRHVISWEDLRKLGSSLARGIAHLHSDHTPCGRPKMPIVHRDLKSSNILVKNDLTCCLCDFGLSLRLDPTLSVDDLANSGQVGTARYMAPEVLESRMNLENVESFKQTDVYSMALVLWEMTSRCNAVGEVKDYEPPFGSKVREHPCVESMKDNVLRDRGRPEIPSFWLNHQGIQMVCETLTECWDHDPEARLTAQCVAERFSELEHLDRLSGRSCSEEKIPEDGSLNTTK

B1: EMI domain: cysteine-rich domain of emilin-1, residues 55-131, SEQ ID NO 2; in some experiments Flag-tagged and GPI-anchored (protein)
chain: RHRNWCAYVVTRTVSCVLEDGVETYVKYQPCAWGQPQCPQSIMYRRFLRPRYRVAYKTVTDMEWRCCQGYGGDDCAE
modifications: sometimes Flag tag and GPI anchor; homo sapiens
notes: in some experiments Flag-tagged and GPI-anchored
On to B1, for which the “Competition with TGF-β for binding to TGFBRII (TGFBRII/TGF-β complex band)” value in test [1] is recorded as “does non compete with TGF-β for binding to TGFBRII”. Further, the “Effect on luciferase expression induced by pro TGF-β1” value with pro TGF-β1 is “inhibits pro TGF-β”. The “Interaction with TGF-β3” value in the test on TGF-β3 is listed as “interaction”.
